Results taken from patent US20220281975A1 (Eli Lilly, published 2022).

Legend:
[1] = molecular target: T1, human TREM2 expressed on BW5147.G.1.4 cells (human, UniProt Q9NZC2 19-230); assay: cell-based or functional assay
T1 sequence (looked up): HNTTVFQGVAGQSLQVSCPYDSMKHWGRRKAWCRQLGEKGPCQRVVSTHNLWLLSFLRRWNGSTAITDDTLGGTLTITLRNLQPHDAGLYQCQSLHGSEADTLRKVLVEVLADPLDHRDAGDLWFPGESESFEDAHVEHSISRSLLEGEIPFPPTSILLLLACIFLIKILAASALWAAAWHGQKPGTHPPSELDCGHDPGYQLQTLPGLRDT

Human ECD TREM2-His [2] = molecular target: T2, Human ECD TREM2-His (human, UniProt Q9NZC2 19-174); assay: SPR (Biacore), 25 C; 25 C; human TREM2
T2 construct: also called Human TREM2; human TREM2 extracellular domain fused to a C-terminal His tag
T2 sequence: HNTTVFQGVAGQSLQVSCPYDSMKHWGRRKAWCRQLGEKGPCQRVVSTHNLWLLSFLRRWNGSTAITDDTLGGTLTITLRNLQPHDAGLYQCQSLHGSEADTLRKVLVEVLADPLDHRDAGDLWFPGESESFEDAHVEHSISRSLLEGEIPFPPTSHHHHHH

Mouse ECD TREM2-His [3] = molecular target: T3, Mouse ECD TREM2-His (mouse, UniProt Q99NH8 19-171); assay: SPR (Biacore), 25 C; 25 C; mouse TREM2
T3 construct: also called Mouse TREM2
T3 sequence: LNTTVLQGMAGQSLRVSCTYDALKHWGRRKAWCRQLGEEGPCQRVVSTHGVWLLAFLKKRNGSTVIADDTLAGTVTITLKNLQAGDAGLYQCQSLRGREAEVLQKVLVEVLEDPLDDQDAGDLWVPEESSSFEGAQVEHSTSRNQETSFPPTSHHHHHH

Cyno ECD TREM2-His [4] = molecular target: T4, Cyno ECD TREM2-His (cynomolgus monkey); assay: SPR (Biacore), 25 C; 25 C; cynomolgus TREM2
T4 construct: also called Cyno TREM2; cynomolgus monkey TREM2
T4 chain: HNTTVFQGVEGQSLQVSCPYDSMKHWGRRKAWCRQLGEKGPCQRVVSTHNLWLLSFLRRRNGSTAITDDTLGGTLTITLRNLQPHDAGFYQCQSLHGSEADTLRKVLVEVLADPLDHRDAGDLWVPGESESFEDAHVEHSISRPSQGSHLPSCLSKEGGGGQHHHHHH

Human TREM2 R47H [5] = molecular target: T5, Human TREM2 R47H (human, UniProt Q9NZC2 19-174, limits assumed); assay: SPR (Biacore), 25 C; 25 C; human TREM2 R47H
T5 construct: also called human R47H TREM mutant; R47H TREM
T5 sequence (looked up): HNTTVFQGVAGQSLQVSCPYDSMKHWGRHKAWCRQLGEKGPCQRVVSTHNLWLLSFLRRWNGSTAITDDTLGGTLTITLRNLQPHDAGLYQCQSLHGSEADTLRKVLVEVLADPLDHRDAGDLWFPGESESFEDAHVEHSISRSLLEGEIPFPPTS

Rat ECD TREM2-His = molecular target: T6, Rat ECD TREM2-His (rat); assay: SPR (Biacore), 37 C, antibody captured on protein A, TREM2-His ECD as analyte
T6 construct: also called Rat TREM2
T6 chain: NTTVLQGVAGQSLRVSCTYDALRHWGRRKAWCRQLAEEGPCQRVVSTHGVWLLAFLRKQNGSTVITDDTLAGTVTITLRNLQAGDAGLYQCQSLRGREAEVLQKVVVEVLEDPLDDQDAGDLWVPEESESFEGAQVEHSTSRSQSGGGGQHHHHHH
Procedure: (§1) The binding kinetics and affinity of TREM2 antibodies to human (SEQ ID NO: 11), mouse (SEQ ID NO: 12), rat (SEQ ID NO: 14), rabbit (SEQ ID NO: 13), or cynomolgus monkey (SEQ ID NO: 15) TREM2 extracellular domains (ECDs) fused to a C-terminal His tag are determined using surface plasmon resonance biosensor such as a BIAcore® T100, BIAcore® T200, or BIAcore® 8K (GE Healthcare, Piscataway, N .).
(§2) Samples are dissolved in 1xHBS-EP+running buffer (Teknova), and a protein A coupled CM5 Series S sensor chip (GE Healthcare) is utilized to capture antibody. Binding is evaluated using multiple analytical cycles. Each cycle is performed at 37° C. at a flow rate of 50 μl/min for antibody capture and 30 μl/min for ligand association and dissociation. […] Association (i.e., kₒₙ) and dissociation rates (i.e., koff) for each cycle are evaluated using standard double referencing and fit to “1:1 (Langmuir) binding” model in the Biacore 8K evaluation in parallel kinetics batch mode. The affinity (KD) is calculated from the binding kinetics according to the relationship KD=Koff/Kₒₙ. […]

Rabbit ECD TREM2-HIS = molecular target: T7, Rabbit ECD TREM2-HIS (rabbit); assay: as above
T7 construct: also called rabbit TREM2
T7 chain: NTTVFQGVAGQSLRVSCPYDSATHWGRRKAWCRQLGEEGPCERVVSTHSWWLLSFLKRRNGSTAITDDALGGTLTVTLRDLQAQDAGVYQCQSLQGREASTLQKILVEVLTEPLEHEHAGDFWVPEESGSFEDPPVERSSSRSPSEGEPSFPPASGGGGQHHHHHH
Procedure: as §1, §2

Human TREM2 R47H [6] = molecular target: T5, Human TREM2 R47H; assay: SPR (Biacore), 37 C, antibody captured on protein A, TREM2 R47H analyte, 1:1 model
Human ECD TREM2-His [7] = molecular target: T2, Human ECD TREM2-His; assay: SPR (Biacore), 37 C, antibody captured on protein A, TREM2-His ECD analyte, 1:1 model
Procedure: as §1
(§3) Samples are dissolved in 1xHBS-EP+running buffer (Teknova), and a protein A coupled CM5 Series S sensor chip (GE Healthcare) is utilized to capture antibody. Binding is evaluated using multiple analytical cycles. Each cycle is performed at 37° C. at a flow rate of 50 μl/min for antibody capture and 30 μl/min for ligand association and dissociation. Each cycle consists of the following: injection of 7 μl of 1 μg/ml antibody with the aim at a capture of 150-250 response units, injection of human, cynomolgus monkey, rabbit, rat, or mouse TREM2-His ECDs (starting at 20nM and using two-fold serial dilutions for each cycle) followed by 200 seconds for association, followed by 800 second dissociation phase, and regeneration using 10 mM glycine hydrochloride, pH 1.5 over a 30 second contact time. Association (i.e., kₒₙ) and dissociation rates (i.e., koff) for each cycle are evaluated using standard double referencing and fit to “1:1 (Langmuir) binding” model in the Biacore 8K evaluation in parallel kinetics batch mode. The affinity (KD) is calculated from the binding kinetics according to the relationship KD=Koff/Kₒₙ. Due to biphasic binding data for Reference Antibody A, a heterogenous ligand 2:1 binding modeling found in the Biacore 8K evaluation was used to calculate the KD. […] N=3 for Antibody 1 and Reference Antibody A, and n=1 for Reference Antibody B.

Mouse ECD TREM2-His [8] = molecular target: T3, Mouse ECD TREM2-His; assay: as above
Procedure: as §1, §3

Cyno ECD TREM2-His [9] = molecular target: T4, Cyno ECD TREM2-His; assay: as above
Procedure: as §1, §3

[10] = molecular target: T1, human TREM2 expressed on BW5147.G.1.4 …; assay: flow cytometry (MFI) on BW5147.G.1.4 cells expressing human TREM2 and DAP12, anti-human IgG Alexa Fluor 647 detection
Procedure: To investigate whether Antibody 1 binds to TREM2-expressing cells, a binding experiment is performed. BW5147.G.1.4 cell line is transduced to express human TREM2 and its adapter […] adapter protein 12 (DAP12). To assess binding, 500,000 cells are incubated in the presence of Antibody 1 with a 3-fold 12-point titration starting at 30 μg/ml for 30 minutes at 37° C. Antibody binding is detected using goat anti-human IgG Alexa Fluor 647 (Jackson Labs). Mean fluorescence intensity (MFI) is measured using an Accuri C6 Plus flow cytometer (BD Biosciences).

IC50 of inhibition of PS-mediated NFAT activation (luciferase reporter cells) [1]: 0.4 µg/mL | Kd (Human ECD TREM2-His [2]): 150 pM | Kd (Mouse ECD TREM2-His [3]): 3900 pM | Kd (Cyno ECD TREM2-His [4]): 43 pM | Kd (Human TREM2 R47H [5]): 290 pM | binding result (Rat ECD TREM2-His): no binding (tested: 200 nM TREM2) | binding result (Rabbit ECD TREM2-HIS): no binding | Kd (Human TREM2 R47H [6]): 75 pM | koff (Human TREM2 R47H [6]): 0.00037 s⁻¹ | kon (Human TREM2 R47H [6]): 5e+06 M⁻¹ s⁻¹ | Kd (Human ECD TREM2-His [7]): 170 pM | koff (Human ECD TREM2-His [7]): 0.00058 s⁻¹ | kon (Human ECD TREM2-His [7]): 3.4e+06 M⁻¹ s⁻¹ | Kd (Mouse ECD TREM2-His [8]): 1600 pM | koff (Mouse ECD TREM2-His [8]): 0.044 s⁻¹ | kon (Mouse ECD TREM2-His [8]): 2.5e+07 M⁻¹ s⁻¹ | Kd (Cyno ECD TREM2-His [9]): 75 pM | koff (Cyno ECD TREM2-His [9]): 0.00037 s⁻¹ | kon (Cyno ECD TREM2-His [9]): 5e+06 M⁻¹ s⁻¹ | EC50 [10]: 0.08 µg/mL
B1: TREM2 Antibody 1 (antibody, human IgG4 S228P, kappa, F234A L235A, V domains shown)
VH: EVQLVQSGAEVKKPGESLKISCKGSGFSFNTYWIGWVRQMPGKGLEWMGIIYPGDQDIRYSPSFQGQVTISADKSISTAYLQWSSLKASDTAMYYCARYGRYIYGYGGYHGMDVWGQGTTVTVSS
VL: DIQMTQSPSSLSASVGDRVTITCRASQAIRDDLGWYQQKPGKAPKLLIYAASSLQSGVPSRFSGSGSGTDFTLTISSLQPEDFATYYCLQNYNYPHTFGQGTKLEIKR
notes: Human antibody with a kappa light chain
